From the Human Domainome abundance scans (Beltran et al. 2025)
± gives the uncertainty stated by the source.

B1: Transcription elongation regulator 1-like protein, residues 448 to 504; numbered along this chain, Q5VWI1 (parent)
chain: LPLEERVTHFRDMLLERGVSAFSTWEKELHKIVFDPRYLLLNSEERKQIFEQFVKTR

Variants of: B1
Test: abundance fitness (aPCA) (normalised: wild type 0, dead -1); higher = more abundant; growth selection in yeast, the domain comes from the species named
Conditions: Homo sapiens

Compared with LPLEERVTHFRDMLLERGVSAFSTWEKELHKIVFDPRYLLLNSEERKQIFAQFVKTR, LPLEERVTHFRDMLLERGVSAFSTWEKELHKIVFDPRYLLLNSEERKQIFCQFVKTR is lower in abundance fitness: 0.047 ± 0.099 for the first, -0.96 ± 0.32 for the second.

First: LPLEERVTHFRDMLLERGVSAFSTWEKELHKIVFDPRYLLLNSEERKQIFFQFVKTR
Second: LPLEERVTHFRDMLLERGVSAFSTWEKELHKIVFDPRYLLLNSEERKQIFHQFVKTR
The abundance fitness of the first is lower: -0.288 ± 0.083 for the first, -0.077 ± 0.1 for the second.

Compared with LPLEERVTHFRDMLLERGVSAFSTWEKELHKIVFDPRYLLLNSEERKQIFDQFVKTR, LPLEERVTHFRDMLLERGVSAFSTWEKELHKIVFDPRYLLLNSEERKQIFIQFVKTR is lower in abundance fitness: -0.04 ± 0.097 for the first, -0.632 ± 0.092 for the second.

Going from LPLEERVTHFRDMLLERGVSAFSTWEKELHKIVFDPRYLLLNSEERKQIFGQFVKTR to LPLEERVTHFRDMLLERGVSAFSTWEKELHKIVFDPRYLLLNSEERKVIFEQFVKTR, the abundance fitness rises from -0.618 ± 0.16 to -0.065 ± 0.11.

First: LPLEERVTHFRDMLLERGVSAFSTWEKELHKIVFDPRYLLLNSEERKNIFEQFVKTR
Second: LPLEERVTHFRDMLLERGVSAFSTWEKELHKIVFDPRYLLLNSEERKWIFEQFVKTR
The abundance fitness of the first is higher: 0.751 ± 0.21 for the first, -0.05 ± 0.18 for the second.

LPLEERVTHFRDMLLERGVSAFSTWEKELHKIVFDPRYLLLNSEERKGIFEQFVKTR and LPLEERVTHFRDMLLERGVSAFSTWEKELHKIVFDPRYLLLNSEERKKIFEQFVKTR are within error of each other in abundance fitness: -0.237 ± 0.084 for the first, -0.31 ± 0.48 for the second.

LPLEERVTHFRDMLLERGVSAFSTWEKELHKIVFDPRYLLLNSEERKSIFEQFVKTR and LPLEERVTHFRDMLLERGVSAFSTWEKELHKIVFDPRYLLLNSEERKEIFEQFVKTR are within error of each other in abundance fitness: -0.139 ± 0.1 for the first, 0.006 ± 0.25 for the second.

LPLEERVTHFRDMLLERGVSAFSTWEKELHKIVFDPRYLLLNSEERKMIFEQFVKTR and LPLEERVTHFRDMLLERGVSAFSTWEKELHKIVFDPRYLLLNSEERKRIFEQFVKTR are within error of each other in abundance fitness: -0.002 ± 0.24 for the first, -0.165 ± 0.098 for the second.

LPLEERVTHFRDMLLERGVSAFSTWEKELHKIVFDPRYLLLNSEERKIIFEQFVKTR and LPLEERVTHFRDMLLERGVSAFSTWEKELHKIVFDPRYLLLNSEERKLIFEQFVKTR are within error of each other in abundance fitness: -0.213 ± 0.11 for the first, -0.082 ± 0.12 for the second.

First: LPLEERVTHFRDMLLERGVSAFSTWEKELHKIVFDPRYLLLNSEERKQYFEQFVKTR
Second: LPLEERVTHFRDMLLERGVSAFSTWEKELHKIVFDPRYLLLNSEERKQSFEQFVKTR
The abundance fitness of the first is higher: 0.129 ± 0.48 for the first, -0.669 ± 0.23 for the second.

First: LPLEERVTHFRDMLLERGVSAFSTWEKELHKIVFDPRYLLLNSEERKQPFEQFVKTR
Second: LPLEERVTHFRDMLLERGVSAFSTWEKELHKIVFDPRYLLLNSEERKQCFEQFVKTR
The abundance fitness of the first is lower: -0.886 ± 0.17 for the first, -0.261 ± 0.23 for the second.

LPLEERVTHFRDMLLERGVSAFSTWEKELHKIVFDPRYLLLNSEERKQEFEQFVKTR and LPLEERVTHFRDMLLERGVSAFSTWEKELHKIVFDPRYLLLNSEERKQVFEQFVKTR are within error of each other in abundance fitness: -0.3 ± 0.39 for the first, 0.082 ± 0.13 for the second.

Compared with LPLEERVTHFRDMLLERGVSAFSTWEKELHKIVFDPRYLLLNSEERKQWFEQFVKTR, LPLEERVTHFRDMLLERGVSAFSTWEKELHKIVFDPRYLLLNSEERKQQFEQFVKTR is higher in abundance fitness: -0.743 ± 0.24 for the first, 0.437 ± 0.1 for the second.

Compared with LPLEERVTHFRDMLLERGVSAFSTWEKELHKIVFDPRYLLLNSEERKQAFEQFVKTR, LPLEERVTHFRDMLLERGVSAFSTWEKELHKIVFDPRYLLLNSEERKQTFEQFVKTR is higher in abundance fitness: -0.517 ± 0.28 for the first, 0.117 ± 0.18 for the second.

Compared with LPLEERVTHFRDMLLERGVSAFSTWEKELHKIVFDPRYLLLNSEERKQLFEQFVKTR, LPLEERVTHFRDMLLERGVSAFSTWEKELHKIVFDPRYLLLNSEERKQGFEQFVKTR is lower in abundance fitness: 0.035 ± 0.17 for the first, -0.643 ± 0.17 for the second.

LPLEERVTHFRDMLLERGVSAFSTWEKELHKIVFDPRYLLLNSEERKQRFEQFVKTR and LPLEERVTHFRDMLLERGVSAFSTWEKELHKIVFDPRYLLLNSEERKQMFEQFVKTR are within error of each other in abundance fitness: -0.782 ± 0.31 for the first, -0.599 ± 0.26 for the second.

First: LPLEERVTHFRDMLLERGVSAFSTWEKELHKIVFDPRYLLLNSEERKQDFEQFVKTR
Second: LPLEERVTHFRDMLLERGVSAFSTWEKELHKIVFDPRYLLLNSEERKQIGEQFVKTR
The abundance fitness of the first is higher: 0.515 ± 0.3 for the first, -0.759 ± 0.22 for the second.

LPLEERVTHFRDMLLERGVSAFSTWEKELHKIVFDPRYLLLNSEERKQIMEQFVKTR and LPLEERVTHFRDMLLERGVSAFSTWEKELHKIVFDPRYLLLNSEERKQIAEQFVKTR are within error of each other in abundance fitness: -0.605 ± 0.5 for the first, -0.887 ± 0.2 for the second.

First: LPLEERVTHFRDMLLERGVSAFSTWEKELHKIVFDPRYLLLNSEERKQIWEQFVKTR
Second: LPLEERVTHFRDMLLERGVSAFSTWEKELHKIVFDPRYLLLNSEERKQITEQFVKTR
The abundance fitness of the first is higher: -0.17 ± 0.084 for the first, -0.924 ± 0.4 for the second.

LPLEERVTHFRDMLLERGVSAFSTWEKELHKIVFDPRYLLLNSEERKQIREQFVKTR and LPLEERVTHFRDMLLERGVSAFSTWEKELHKIVFDPRYLLLNSEERKQIEEQFVKTR are within error of each other in abundance fitness: -0.714 ± 0.14 for the first, -0.69 ± 0.4 for the second.

LPLEERVTHFRDMLLERGVSAFSTWEKELHKIVFDPRYLLLNSEERKQIDEQFVKTR and LPLEERVTHFRDMLLERGVSAFSTWEKELHKIVFDPRYLLLNSEERKQILEQFVKTR are within error of each other in abundance fitness: -0.624 ± 0.25 for the first, -0.413 ± 0.17 for the second.

First: LPLEERVTHFRDMLLERGVSAFSTWEKELHKIVFDPRYLLLNSEERKQIQEQFVKTR
Second: LPLEERVTHFRDMLLERGVSAFSTWEKELHKIVFDPRYLLLNSEERKQIYEQFVKTR
The abundance fitness of the first is lower: -0.866 ± 0.23 for the first, 0.082 ± 0.22 for the second.

First: LPLEERVTHFRDMLLERGVSAFSTWEKELHKIVFDPRYLLLNSEERKQIVEQFVKTR
Second: LPLEERVTHFRDMLLERGVSAFSTWEKELHKIVFDPRYLLLNSEERKQINEQFVKTR
The abundance fitness of the first is lower: -0.833 ± 0.13 for the first, 0.347 ± 0.22 for the second.

Variant LPLEERVTHFRDMLLERGVSAFSTWEKELHKIVFDPRYLLLNSEERKQIKEQFVKTR has an abundance fitness of -0.835 ± 0.4.
